Reference: the nanobody polyreactivity screen of Harvey et al. (2022)

Assay: yeast display, Sf9 membrane polyspecificity reagent, FACS + sequencing; frameworks hold sequencing errors
Summary of the method: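 A synthetic nanobody library was expressed on Saccharomyces cerevisiae BJ5465 by galactose induction for 36–48 hours. The library was stained for 1 hour at 4 °C with 10% biotinylated, detergent-solubilized Sf9 membrane reagent and enriched with streptavidin microbeads before FACS. Low and high (top ~1%) gates were set on anti-HA fluorescence for expression and streptavidin fluorescence for reagent binding, and each polyreactivity label reflects the gate of origin.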

Sequence	polyreactivity (PSR sort gate)
QVQLVESGGGLVQAGVSLRLSCAASGSTFVGYAMGWYRQAPGKERELVAAISYSGGSTYYADSVKGRFTISRDNAKNTVYLQMHSLKPEDTAVYYCAAEWSRHYYYGPRYDYWGQGSQVTVSS	low polyreactivity
QVQLVESGGGLVQAGVSLRLSCAASGSTLVYYAMGWYRQAPGKERELVAAITRSGDNTYYADSVKGRFTISRDNAKNTVYLQMNSLKPEDTAVYYCAVKKRVYSGDYWGQGTQVTVSS	high polyreactivity
QVQLVESGGGLVQAGVSLRLSCAASGSTYNAMGWYRQAPGKEREFVAAITSSGGSTYYADSVKGRFTISRDNAKNTVYLHMNSLNPEDTAVYYCASSYWTAWYQLDYWGQGTQVTVSS	high polyreactivity
QVQLVESGGGLVQAGVSLRLSCASSGSIFPEYVMAWYRQAPGKERELVAAISWSGGSTYYADSVKGRITISRDNAKNTVYFQMNCLKQEATAVYYCNRVPSWRIDYDYWGQGTLVTVSS	low polyreactivity
QVQLVESGGGLVQAGVSLRLSCDASGSIFDPYAMGWFRQAPGKEMELVAAITASGSSTYYADSVKGRFTISRDNAKNTVYLQMNSLKPEDTAVYYCAADRANWEYLLSWLGYDYWGQGTQVTVSS	low polyreactivity
QVQLVESGGGLVQAGVSLRLSFAASGSTFRGYAMGWYRQAPGKEREVVAAISSRGARTHYAHSVKGRFTISRDNAKNTVYLQMYSLKPVDTAVNYCNKRQVFVSTGEYEFDYCGQGTQVTVSS	low polyreactivity
QVQLVESGGGLVQAGVSLRVSCAASGRTFSRYTMGWYRQAPGKEREMVAAISKRGGSTYYADSVKGRFTISRDNAKNTVYLQRNSLKPEETAVYYCNAYGLVGLVGVIMYYWGQGTQVTVSS	high polyreactivity
QVQLVESGGGLVQARCSLRLSCAASGSTFLRYAMGWYRQAPGKERELVATISSSDDGTYYADSVKGRFTISRDIAKNTVYLQMNSLKPEDTAVYYCAARSWYLYYYWGQGTQVTVSS	low polyreactivity
QVQLVESGGGLVQARGSLRLICAASGYIFRGYAMGWYRQAPGKERELVASISRTGVSTYYADSVKGRFTISRDNAKNTVYLQMNSLKPEDTAVYYCAADYYYWYYKSGYDYWGQGTQVTVSS	high polyreactivity
QVQLVESGGGLVQARGSLRLSCAASGFTFDTYAMGSYRQAPGKARELVAVLSRGGSTYYADSVKGRFTISRDKAKNTVYLQMNSLKPEDPAVYFCNAKHKQGRKQFKLGAGYYWGQGTQVTVSS	high polyreactivity
QVQLVESGGGLVQARGSLRLSCAASGFTFYSNAMGWYRQAPGKERELVAVINSDDDSTYYADSVKGRFTISRDNAKNTVYLQMNSLKPEDTAVYYCNKVWRVGKYPYSDRYYFGGGYWGQGTQVTVSS	high polyreactivity
QVQLVESGGGLVQARGSLRLSCAASGLTFRRNTMGWYRQAPGKERELVATITSGGSTNYADSVKGRFTISRDNAKNTVYLQMISLKPEDTAVYYCAARTTYITNWVYRHTYTYYYWGQGTQVTVSS	high polyreactivity
QVQLVESGGGLVQARGSLRLSCAASGLTFYYYVMGWYRQAPGKERELVAAISYSGGRTYYADSVKGRFTISRDNAKNTVYLQMNSLKPEDTAVYYCAAQSRYGGKFYYWGQGTQVTVSS	high polyreactivity
QVQLVESGGGLVQARGSLRLSCAASGRIFSYYAMGWYRQAPGKERELVATISKSGGSTYYADSVKGRFTISRDNAKNTVYLQMNSLKPEDTALYYCAAVGPYRWYDYWGQGTQVTVSS	high polyreactivity
QVQLVESGGGLVQARGSLRLSCAASGRNFADYAMGWYRQAPGKERELVAAIDWSDGSTKYADSVKGRFTISRDNAKNTVYLQINSLKPEDTAVYYCGADYWPRDGLGWWYDYWGQGTQVTVSS	low polyreactivity
QVQLVESGGGLVQARGSLRLSCAASGRTFVDYVMGWYRQAPGKERELVAAITYSGGSTSYADSVKGRFTISRDYAKNNFNLQMNSLKPEDTAVYYCNADGDHPYSRNDYWGQGTQVTVSS	low polyreactivity

Sequence	polyreactivity (PSR sort gate)
QVQLVESGGGLVQARGSLRLSCAASGRTYAGYAMGWYRQAHGKERELVASITSGGRTYYADSVKGRFTISRDNAKNTVYLQMNSLKPEDTAVYYCNKVYKSYYWGGYDWGQGTQVTVSS	high polyreactivity
QVQLVESGGGLVQARGSLRLSCAASGSIFFRYTMGWYRPAPGKEWELVATITGSGSSTTYADSVKGRFTISRDNAKNTVYLQMNSLKPEDTAVSYCAAADIIDHSFPYDYWGQGTQVTVSS	low polyreactivity
QVQLVESGGGLVQARGSLRLSCAASGSIFTYNAMGWYRQAPGKERELVAAIDYSGGSTYYADSVKGRFTISRDNAKNTVYLQMKSLKPEDTAVYYCAAPWVPYPGYSLYGYDYWGQGTQVSVSS	low polyreactivity
QVQLVESGGGLVQARGSLRLSCAASGSIFYNNALGWYRQAPGKERELVAAISGSGDSTYYADSVKGRFTISRENAKNTVYLQMNSLKPEDTAVYYCNATPYVLWWSDMDYWGQGTQVTVSS	high polyreactivity
QVQLVESGGGLVQARGSLRLSCAASGSILDYYVMGWYRQAPGKERELVAAIRGGGSTYYADSVKGRFTISRDNAKNTVYLQMNSLKPEDTAVYYCAKDSQTARDFDYWGQGTQVTVSS	low polyreactivity
QVQLVESGGGLVQARGSLRLSCAASGSISVYNAMGWYRQAPGKERELVAAISWSGGRTSYADSVKGRFTISRDNAKNTVYLQMNSLKPEDTAVYYCAADELTVLWDEDYWGQGTQVTVSS	low polyreactivity
QVQLVESGGGLVQARGSLRLSCAASGSTFDYYAMGWYRQAPGKEWELVAAIDTSGDDTYYADSVKGRFTISRDNAKNTVYLQMNSLKPEDTAVYYCAADFPYDEVDYWGQGTQVTVSS	low polyreactivity
QVQLVESGGGLVQARGSLRLSCAASGSTFEHNAMGWYRQGPGKERELVAAISYSGGRTYYADSVKGRFTISRDNAKNTVYLQMNSLKTEDTAVYYCAAPYYSWPYYYWGLGTQVTVSS	high polyreactivity
QVQLVESGGGLVQARGSLRLSCAPSGRTFQLNAMGWYRQAPGKERQLFAAITVSGGGKYYADSVKGRFTISRDYAKNTVYFQMNSLKPEDTAVYYCNAKYKTRGRKSLYDYWGQGTQVTVSS	high polyreactivity
QVQLVESGGGLVQARGSLRLSCASSGRIFDNYAMGWYRQAPGKERELVAAITYIDSGTYYADSVKGRFTISRDNAKNTVYLQMNSLKPEDTAVFYCAVGLNSDSKRKTQKYGYWGQGTQVTVSS	low polyreactivity
QVQLVESGGGLVQARGSLRLSCASSGSIFTDNGMGWYRQPPGKESDLVAAISWRGGTYYADSVKGRFTISRDNAKNTVYLQMNSLKPEDSAVYYSAADVLRISTRLFRGPGFDSWGQGTQVTVSS	low polyreactivity
QVQLVESGGGLVQARGSLRLSSAASGSTFSYYAMGGYRQEHGTETQLVATISKRGGSTYYADSVKGRFTISRDNAKNTVYLQMNSLKPEDTAVYYCAAEFLVRYGYDYWGQGTQVTVSS	high polyreactivity
QVQLVESGGGLVQAVASIRLSCAASGITIYLYAKGWSRQAPGKARELVATITSRSGSTYYADSVKGRFTISRDNAKNTVYLQMNSLKPEDTAVYYCAAKYPRYLYGYWGQGTQVTVSS	high polyreactivity
QVQLVESGGGLVQAVCSLRLSCAASGIIFVYYVMGWYRQAPGKERELVASIDGSGGSTNYADSVKGRFTISRDNAKNTVYLQMNSLKPEDTAVYYCAASGRYDYDYWGQGTQVTVSS	low polyreactivity
QVQLVESGGGLVQAVGSHRLSCAASGRIFGNNVMGWYRQEPGKERELVAANTFSGTSTYYADSVKGRFTISRDNAKNTVYLQMNSLKPEDTAVYYCAKYRYADYYSPGYDYWGQGTQVTVSS	low polyreactivity
